The values that follow come from patent publication US20240190966A1 (published 2024).

The target in the test is T1, human LY6G6D-Fc (human, UniProt O95868 20-104).
T1 construct: also called huLY6G6D; hu Ly6G6D; not shown: linker and Fc
T1 sequence: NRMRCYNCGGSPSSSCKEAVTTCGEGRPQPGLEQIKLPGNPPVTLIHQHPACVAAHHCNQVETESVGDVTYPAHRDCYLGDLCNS
The experiment in a line: BIAcore SPR; chimeric Fab; Ly6G6D-Fc captured on Protein A chip, 37 C (FIG. 34C). On the procedure: FIG. 34C is a set of graphs showing binding of Fab variants of rabbit 20A12, rabbit 20A12 comprising […] and C50A (IA) mutations, and the polished humanized 20A12 having a QNT amino acid substitution mutations at the glycosylation site of FIG. 34B to LY6G6D, as measured using a BIAcore assay. Ly6G6D-Fc was captured on a Protein A chip, and the Fab was flowed through at 37° C..

B1: rb20A12.IA (C35I-C50A) chimeric Fab (Fab, V domains shown)
VH: QQQLEESGGDLVKPGASLTLTCTASGFDFVNNAMIWVRQAPGKGLEWIAALSFADNTAYYATWASGRFTISKISSTTVTLRMTSLTGADTATYFCMRGDLWGPGTLVTVSS
VL: DIVMTQTPSSVSAAVGGTVTINCQASESITRYLNWYQQKPGQPPKLLIYDASKLPSGVPSRFKGSGSGTQFTLTTSDLECADAATYYCQSTSFRGRSYNNTFGGGTEVVVK
modifications: CDR-L3 NNT site is N-glycosylated.
notes: also called rabbit 20A12 comprising C35I and C50A (IA) mutations
B1 came in with a Kd of 0.86 nM. This counts as sub-nanomolar.

As a reminder, the Kd is the constant that tells how readily two partners part at equilibrium.
